These results are taken from PMC11972413.

Common to all, as to test: cryo-EM structure
Test [1] addresses adapter protein (bacteriophage φTE).
For test [2], the target named is hub protein (bacteriophage φTE).
In test [3] the target is long-tail fiber (LTF) (bacteriophage φTE).
Test [4] has as its target major capsid protein (MCP) (bacteriophage φTE).
The target in test [5] is minor capsid protein (DEC) (bacteriophage φTE).
Test [6] deals with portal protein (bacteriophage φTE).
Test [7] concerns the target puncture apparatus (PA) (bacteriophage φTE).
Test [8] has as its target short-tail fiber (STF) (bacteriophage φTE).
Test [9] deals with tail sheath protein (bacteriophage φTE).
Test [10] deals with tail tube protein (bacteriophage φTE).
Test [11] deals with tape measure protein (TMP), six-stranded part along the tail (bacteriophage φTE).
The target of test [12] is tube initiator (TI) protein (bacteriophage φTE).

One may read the stoichiometry N as a count of units in the complex or per binding partner. Substance adapter protein (natural protein) yielded a stoichiometry N in [1] of 12.

Regarding hub protein (natural protein), the stoichiometry N in test [2] turned out to be 3.

Substance long-tail fiber (LTF) (natural protein) yielded a stoichiometry N in test [3] of 3.

In the case of “major capsid protein (MCP) (natural protein)”, the stoichiometry N in test [4] is 6.

Substance “minor capsid protein (DEC) (natural protein)” yielded a stoichiometry N in [5] of 3.

In the case of portal protein (natural protein), the stoichiometry N in [6] was 12.

As for “puncture apparatus (PA) (natural protein)”, the stoichiometry N in test [2] is 1; in test [7], 3.

Substance “short-tail fiber (STF) (natural protein)” gave a stoichiometry N in test [8] of 3.

In test [9], tail sheath protein (natural protein) returned a stoichiometry N of 6.

For tail tube protein (natural protein), in [10], the stoichiometry N came out at 6.

Turning to “tape measure protein (TMP), six-stranded part along the tail (natural protein)”, the stoichiometry N in test [11] is 6.

In the case of “tube initiator (TI) protein (natural protein)”, the stoichiometry N in test [12] came out at 6.
